Measured values: PMC2140025

Molecular target: F-actin (rat (endogenous in MTLn3)) (UniProt P60711)
Test: FLIP

tau of the slow FLIP component (assigned to F-actin-bound cofilin): 26 s
Substance: GFP-cofilin (from UniProt P45592 1-166) (natural protein)
